Experiment: yeast display, Sf9 membrane polyspecificity reagent, FACS + sequencing; frameworks hold sequencing errors
Method in brief: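 Genes from sorted yeast were amplified by colony PCR, read by MiSeq 2 × 250 sequencing and filtered on CDR length. These cells carried a synthetic nanobody library in Saccharomyces cerevisiae BJ5465 and were sorted by FACS into low and high (top ~1%) gates on anti-HA and streptavidin fluorescence. Polyreactivity is labelled according to the gate of origin.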

Row | Sequence | polyreactivity (PSR sort gate)
1 | QVQLVESGGGLVQAGGSLRLSCAASGRTFVHYTMGWYRQAPGKERELVATISTSGGSTSYADSVKGRFTISRDNAKNTVYLQMNSLIPEDTAVYYCAARWYFPDRVKYDYWGQGTQVTVSS | low polyreactivity
2 | QVQLVESGGGLVQAGGSLRLSCAASGFTFDSNAMGWYRQAPGKERELVAAISKRGGSTYYADSVKGRFTISRDNAKNTVYLQMNRLKPEDTAVYYCAADNYNSGGTRHMYYWGQGSQVTVSS | high polyreactivity
3 | QVQLVESGGGLVQAGGSLRLSCAASGSTFNANAMGWYRQAPGKERELVAAITAIGGSTYYADSVTGRFTISRDNAKNTVYLQMNSLKPEDTAVYYCAADFSYVYYLYDYWGQGTQVTVSS | low polyreactivity
4 | QVQLVESGGGLVQAGGSLRLSCAASGFNFYSYAMGWYKQAPGKERELVAVTYADSVKGRFTISRDNAQNTVYLQMNSLKPEDTAVYYCAALEYLDGPLSDYWGQGTQVTVSS | low polyreactivity
5 | QVQLVESGGGLVQAGGSLRLSCAASGSIFSHYVMGWYRQAPGKERELVAAISRSGGTTYYADSVKGRFTISRDNAKNTVYLQMNSLKPEDTAVYYCNVRGEPYPYYDGYEYDYWGQGTQVTVSS | low polyreactivity
6 | QVQLVESGGGLVQAGGSLRLSCAASGSTFKAYAMGWYRQAPGKERELVAAITKSGGRTYYADSVKGRFTLSRDNAKNTVYLQMNSLKPEDTAVYYCNAAAYVWKSKQRLYVITYDYWGQGTQVTVSS | high polyreactivity
7 | QVQLVESGGGLVQAGGSLRLSCAASGFTFWSYAMGWYRQAPGKERELVAAISSSGDSTYYADSVKGRFTISRDNAKNTVYLQMNSLKPEDTAVYYCAAGTHTDYGRYYYWGQGTQVTVSS | low polyreactivity
8 | QVQLVESGGGLVQAGGSLRLSCAASGSIFAYNAMGWYRQAPGKEREFVAVITRSDDSTYADSVKGRFTISRDNAKNSVYLQMNSLKPEDTAVYYCAAQPFVIDGGYRGDYWGQGTQVTVSS | low polyreactivity
9 | QVQLVESGGGLVQAGGSLRLSCAASGSTFGNNAMGWYRQAPGKERELVATIDDTTVSTNYADSVKGRFTISRDNAKNTVYLQMNSLKPEDTAVYYCAADDVDGSPYDYWGQGTQVTVSS | low polyreactivity
10 | QVQLVESGGGLVQAGGSLRLSCAASGRTFGGNAMGWYRQAPGKERELVASISWSGGTTYYADSVKGRFTISRDNAKNTVYFQMNSLKPEDTAVYYCNTVNSQQYSSSHYDSWGQGTQVTVSS | high polyreactivity
11 | QVQLVETGGGLVQAGGSLRLSSAASGRIFRNYTMGWYRQAPGKERELVAAISSSGGRTYYADSVKGRFTISRDNEKNTVYLQMNSLKPEDTAVYYCNTDGPTWYPTYDYWGQGTQVTVSS | high polyreactivity
12 | QVQLVESGGGLVQAGGSLRLSCAASGSIFRYYAMGWYIQAPGKERELVAVITRGGSTYYADSVKGRFTISRDNAKNTVYLQMNSLKPEDTAVYYCAADYWPAGLDRGYWGQGTQVTVSS | low polyreactivity
13 | QVQLVESGGGLVQAGGSLRLSCAASGSIFQGNVMGWYRPAPGKERELVAAISYSGDSTYYADSVKGRFTISRDNAKNTVYLQMNRLKPEDSAVYYCYAYRNRYGYRTSSRRYGYWGQGTQVTVSS | high polyreactivity
14 | QVQLQESGGGLVQADGSLRLSCAASGSIFGYYNMGWYRQAPGKHRELVATINLCRITNYADSVKGRFTISRDNATNTVYVEMHSLNPDDTAVFYCAADEYAQRDLGYWGQGTQVTVSS | low polyreactivity
15 | QVQLVESGGGLVQAGGSLRLSCAASGGIFRANTMGWYRQAPGKERELVAVISWSGARTYYADSVKGRFTISRDNAKNTVYLQMNSLKPEDTAVYYCNARVPKLGSMYYWGHGTQVTVSS | high polyreactivity
16 | QVKLVESGGVLVQAGGSLRLSCAASAFTFRWYSMGWYRQATGKERELVARISWDGGSTYYADSVKGRFTISRDNAKNTVYVQMNSLKPEDTAVYYCAIDWYYLRRNYDYWGQGTQVTLSS | high polyreactivity
17 | QVQIVESGAGLVQAGGSLSLSCDASGFIFVWYAMGWYRQAPGKERELVAAISWTGGSTYYADSVKGRFTISRDNAKNTVYLQINSLKPEDTAVYYCAATYEFYPEELDYWGQGTQVTVSS | low polyreactivity
18 | QVQLVESGGGLVQAGGSLRLSCAASGRIFTRNAMGWYRQAPGKERELVAAISNGGRTNYADSVKGRFTISRDNAKYTVYLQMNSLKPEDTAVYYCNARYLPRSTIYDYWGQVTQVTVSS | high polyreactivity
19 | QVQLVESGGGLVQAGGSLRLSCAASGRTFYYYAMAWYRPAPGKERELVAAISWSGGRTYYADSVKGRFTISRDNAKNTVYLLMNSLIPVDTAVYYCNAEPPRGYTVSSGGEMDYWGQGTQVTVSS | low polyreactivity
20 | QVQLVESGGGLVPAGGSLRLSCAASGFTFPAYTRGWYRPAPGKERELVAAITSSGGNTYYADSVKGRFTISRDNAKNTVYLQMNSLKPEDTAVYYCNADASSSPYTDRQYIGADDSWGQGTQVTVSS | low polyreactivity
21 | QVQLIESGGGLVQAGGSLRLSCAASGSIFAANAMGWYRQAPGKEREFVASISYTGASTYADSVKGRFTISRDNAKNTVYLQINSLKPEDTAVYYCAKDGYWTGLDPYYYWGQGTQVTVSS | low polyreactivity
22 | QVQLVESGGGLVQAGGSLRLSCAASGGNFSLNAMGWYRQAPGKERELVATISWSGTSTHYADSVKGRFTISRDNAKNTVYLQMNSLKPEDTAVYYCNTRLYGRDYSWYDYWGQGTQVTVSS | high polyreactivity

Row | Sequence | polyreactivity (PSR sort gate)
23 | QVQLVESGGRLVQAGGSLRLSCAASGSIFTFYALGWYRQAPGKESELVAAISYRGGSTYYADSVRGRFTISRDNAKNTVYLQMNRLKPEDTAVYFCAAGRFPVFFQGYRMEYWGQGTQVTVSS | low polyreactivity
24 | QVQLVASGGGLVQAGGSLRLSCAATGNTLGYYDMGWYRQAPGKERELVAGITFRGGRTYYADSVKGRFTISRDNPKNTVYLQMKSLKPEDTAVYYCAKRTRYSPGHDYWGLGTQVTVSS | high polyreactivity
25 | QVQLVESGGGLVQAGGSLRLSCAASGFIFAQNAMGWYRQAPGKERELVAAISGSGGRTYYADSVKGRFTISRDNAKNTVYLQMNSLKPEDTAVYYCAAQYFSGYWGQGTQVTVSS | high polyreactivity
26 | QVQLVESGGRLVQAGGSLRLSCAASGRTIVIYAMGWYRQAPGKEREFVAAISRSGGSTYYADSVKGRFTISRDNAKNTVYLQMNSLKPEDTAVYYCYTRTPYWFKSDYWGQGTQVTVSS | low polyreactivity
27 | QVQLQESGGGLVQAGGSLRQSCAASGSISATDSVGWYRQAPGKEREFVATIDGGANTNYADSVKGRFTISRDNAKNTVYLQMNSLKPEDTAVYYCAKDSQTARDFDYWGQGTQVTVSS | low polyreactivity
28 | QVQLVESGGGLVQAGGSLRLSCAASGRIFTGNAMGWYRQAPGKERELVASITYSDGSTYYADSVKGRFTISRDNAKNTVYFQMNSLKPEDTAVYYCAADILWGQGTQVTVSS | low polyreactivity
29 | QVQLVESGGGLVQAGGSLRLSCAASGYILFAYAMGWYRQAPGKERELVATITTSGGITYYADSVKGRFTISRDNAKNTVYLQMNSLKPEDTAVYYCAAAEGGGLVTYDYWGQGTQVTVSS | low polyreactivity
30 | QVQLVESGGGIVQAGGSLRVSCAASGSIFLDNAMGWYRQAPGKERELVADISYSGGSTYYADSVKGRFTISRDNAKNTVYLQMNSLKPEDTAVYYCAAGVQLTVPPLRSSVTEYDYWGQGTQVTVSS | low polyreactivity
31 | QVHLVESGGGLVQAGGSLRLSCAASGRTFYPFGMGWYRQATGKERELVATITYSGARTYYADTVKGRFTISRDNAKNTVYLQMNILKPEDTAVYYCAAGYYWGIGTGFDYWGQGTQVTVSS | high polyreactivity
32 | QVQLVVSGGGLVQPGGSLRLSCAATGSTLNSYVMGWYRQAPGKERELVATIRSGSSTNYADSVKGRFTISRDNAKNTVYLLMNSLKPEDTAVYYFAADAYSLCYDSWGQGTLVTVSS | low polyreactivity
33 | QVQLVESGGGLVQAGCSLRLSCAASGRIFRRYAMGWYRQAPGKERELVAAITSGGGSTYYADSVKGRFTISRDNAKNTVYLQMNSLKPEDTAVYYCNKSSWEFVKGKYGYWGQGTQVTVSS | low polyreactivity
34 | QVQLVESGGGLVQAGGSLRLSCAASGSTFSANTMGWYRQAPGKERELVAAISSSGVGTRYADSVKGRFTISRDNAKNTVYLQMNSLKPEDTAVYYCNADLYGGGDKSVISGLNGEYEYWGQGTQVTVSS | low polyreactivity
35 | QVQLVESGGGLVQAGGSLRLSCAASGSTFVKNAMGWYRQAPGKERELVAAISYRGGRTYYADSVKGRYTISRDNAKNTVYLQMNSLKPEDTAVYYCNARYRTPSFIRMGYWGQGTQVTVSS | high polyreactivity
36 | QGQLVESGGGLVQAGGSLRLSCAASGSTFWRYAMGWYRQAPGKERELVAAISRSGGSTYYADSVKGRFTISRDNAKNTVYLQMHSLKPEDTAFYYCAARYPTPYRKLGSWGQGTQVSVSS | high polyreactivity
37 | QVQLVESGGGLVQAGGSLRLSCAASGRTFFYNARGWYRQEPGKERELVAAIDWSGDSTYYADSVKGRFTISRDNAKNTVYLQMNSLKPEDTAVYYCAARRKNRRDYDYYYWGQGTQVTVSS | high polyreactivity
38 | QVQLVESGGGLVQAGGSLRLSCAASGRIFNKNAMGWYRQAPGKERELVAAITYSGGSTYYADSVKGRFTISRDNAKNTVYLQMNSLKPEDTAVYYCARDLYYVYSFAPYRYEYWGQGTQLTVSS | low polyreactivity
39 | QVQLVESGGGLVQAGGSRLSCAASGLIFISYTMGWYRPAPGKERELVAAIDSSGGNTYYADSVKGRFTISRDNAKNTVYLQMNSLKPEDTAVYYCAKDVGHGAGNLMGYWGQGTQVTVSS | low polyreactivity
40 | QVQLVESGGGLVQAGGSLRLSCAASGSILRSNAMGWYRQAPGKERELVATITNSGGSTYADSVKGCFTISRDNAKNTVYLQMNSLKPEDTAVYYCAKAGAGESIAKYDYWGQGTQVTVSS | low polyreactivity
41 | QVQLVESGGGLVQAGGSLRLSCAASGRTFGGNAMGWYRQAPGKERELVAAISSGGSTNYADSVKGRFTISRDNAKNTVYLQMNSLKPEDTAVYYCAAGWYWWARYDYWGQGTQVTVSS | low polyreactivity
42 | QVQHVESRGGLVQAGGSLRLICAASGFILYYYAMGWYRQAPGKVREMVASISRRGGSTYYADSVKGRFTISRDNAKNTVYLQMNSLKPEDTAVYYCAATETTSRRFGYDYWGQGTQVTVSS | high polyreactivity
43 | QVQLVESVGGLVQAGGSLRLSCAASGITIADNAMGWYRQAPRKERELVAAITSGGSTYYADAVKGRFTISRDNAKNTVYFQLNSLKPEDTGVYYCIVRVRRLFYWARLVAYDYWGQGSQVTVSS | high polyreactivity

From the nanobody polyreactivity screen of Harvey et al. (2022)
